{"source": "paper doi:10.1101/2022.02.27.481910", "about": "(bioRxiv, 2022)", "molecules": {"B1": {"name": "KaiC-EE (S431E, T432E) (enzyme)", "chain": "EHQAIAKMRTMIEGFDDISHGGLPIGRSTLVSGTSGTGKTLFSIQFLYNGIIEFDEPGVFVTFEETPQDIIKNARSFGWDLAKLVDEGKLFILDASPDPEGQEVVGGFDLSALIERINYAIQKYRARRVSIDSVTSVFQQYDASSVVRRELFRLVARLKQIGATTVMTTERIEEYGPIARYGVEEFVSDNVVILRNVLEGERRRRTLEILKLRGTSHMKGEYPFTITDHGINIFPLGAMRLTQRSSNVRVSSGVVRLDEMCGGGFFKDSIILATGATGTGKTLLVSRFVENACANKERAILFAYEESRAQLLRNAYSWGMDFEEMERQNLLKIVCAYPESAGLEDHLQIIKSEINDFKPARIAIDSLSALARGVSNNAFRQFVIGVTGYAKQEEITGLFTNTSDQFMGAHSITDSHIEEITDTIILLQYVEIRGEMSRAINVFKMRGSWHDKAIREFMISDKGPDIKDSFRNFERIISGSPTRI"}}, "key": {"KaiC-AA (S431A, T432A)": {"target": "KaiC-AA (S431A, T432A) (UniProt Q79PF4)", "assay": "cryo-EM structure"}, "cryo-EM structure": {"target": "the molecule itself", "assay": "cryo-EM structure"}}, "data": [{"molecule": "KaiC-AA (S431A, T432A) (from UniProt Q79PF4 14-484) (enzyme)", "values": [{"measurement": "stoichiometry N", "setting": "KaiC-AA (S431A, T432A)", "value": 6}]}, {"molecule": "B1", "values": [{"measurement": "stoichiometry N", "setting": "cryo-EM structure", "value": 6}]}]}
